Reference: patent US20180355060A1 (published 2018)
Read-outs that look alike come from different tables or passages of the source.

Tests used:
[1] = molecular target: T1, human transglutaminase type 2 (TG2) (UniProt P21980 1-687); assay: enzyme inhibition
T1 chain: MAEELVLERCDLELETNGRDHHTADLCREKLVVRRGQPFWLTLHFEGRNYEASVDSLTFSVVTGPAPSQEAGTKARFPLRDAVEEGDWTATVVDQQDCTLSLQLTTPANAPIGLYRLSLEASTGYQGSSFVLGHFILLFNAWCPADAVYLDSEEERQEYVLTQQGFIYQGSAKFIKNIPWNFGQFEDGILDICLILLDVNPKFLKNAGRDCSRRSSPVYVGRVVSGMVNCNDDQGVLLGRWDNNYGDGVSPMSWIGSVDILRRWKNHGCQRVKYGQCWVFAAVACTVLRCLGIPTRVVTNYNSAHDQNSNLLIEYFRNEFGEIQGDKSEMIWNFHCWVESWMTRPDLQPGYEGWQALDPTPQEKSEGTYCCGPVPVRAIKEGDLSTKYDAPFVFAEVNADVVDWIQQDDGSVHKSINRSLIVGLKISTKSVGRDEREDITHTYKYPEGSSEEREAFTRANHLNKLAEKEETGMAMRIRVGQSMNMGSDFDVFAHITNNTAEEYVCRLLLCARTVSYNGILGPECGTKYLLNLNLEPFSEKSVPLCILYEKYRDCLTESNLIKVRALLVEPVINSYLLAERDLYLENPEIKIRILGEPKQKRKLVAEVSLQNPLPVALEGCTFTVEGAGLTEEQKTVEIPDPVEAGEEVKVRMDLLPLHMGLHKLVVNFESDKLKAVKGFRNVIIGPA

[2] = molecular target: T1, human transglutaminase type 2 (TG2); assay: ELISA
cynomolgus monkey TG2 [3] = molecular target: T2, cynomolgus monkey TG2 (cynomolgus monkey, UniProt A0A2K5VXI8 2-687); assay: ELISA
T2 chain: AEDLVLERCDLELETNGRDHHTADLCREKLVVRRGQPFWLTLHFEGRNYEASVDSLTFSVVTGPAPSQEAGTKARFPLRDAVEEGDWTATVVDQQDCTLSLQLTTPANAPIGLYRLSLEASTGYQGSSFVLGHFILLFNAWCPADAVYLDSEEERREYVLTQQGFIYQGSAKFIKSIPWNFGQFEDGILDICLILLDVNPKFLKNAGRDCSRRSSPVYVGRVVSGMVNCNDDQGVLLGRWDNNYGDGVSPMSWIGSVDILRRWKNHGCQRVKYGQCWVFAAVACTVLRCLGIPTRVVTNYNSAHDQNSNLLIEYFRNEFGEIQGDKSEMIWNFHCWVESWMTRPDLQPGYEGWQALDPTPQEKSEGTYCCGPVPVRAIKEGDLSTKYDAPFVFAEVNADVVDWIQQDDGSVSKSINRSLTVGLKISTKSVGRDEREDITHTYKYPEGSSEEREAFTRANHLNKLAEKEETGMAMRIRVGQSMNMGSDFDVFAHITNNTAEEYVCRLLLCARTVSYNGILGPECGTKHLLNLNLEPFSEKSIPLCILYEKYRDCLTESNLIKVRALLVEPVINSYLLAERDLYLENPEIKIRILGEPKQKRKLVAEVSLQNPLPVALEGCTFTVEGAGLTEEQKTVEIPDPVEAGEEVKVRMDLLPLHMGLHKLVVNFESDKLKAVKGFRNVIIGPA

cynomolgus monkey TG2 [4] = molecular target: T2, cynomolgus monkey TG2; assay: enzyme inhibition
[5] = molecular target: T1, human transglutaminase type 2 (TG2); assay: ELISA
[6] = molecular target: T1, human transglutaminase type 2 (TG2); assay: enzyme inhibition
cynomolgus monkey TG2 [7] = molecular target: T2, cynomolgus monkey TG2; assay: ELISA
[8] = molecular target: T1, human transglutaminase type 2 (TG2); assay: enzyme inhibition
[9] = molecular target: T1, human transglutaminase type 2 (TG2); assay: enzyme inhibition

B1: hBB001AA humanised BB7 antibody (BB7 RHA with BB7 RKA) (antibody, V domains shown)
VH: EVQLLESGGGLVQPGGSLRLSCAASGIIFSSSAMSWVRQAPGKGLEWVATISSGGRSTYYPDSVKGRFTVSRDSSKNTLYLQMNSLRAEDTAVYYCAKLISPYWGQGTLVTVSS
VL: DIKMTQSPSSLSASVGDRVTITCKASQDINSYLTWFQQKPGKAPKTLIYLTNRLMDGVPSRFSGSGSGQEFLLTISSLQPEDFATYYCLQYVDFPYTFGQGTKVEIK
Work on B1 yielded an IC50 [1] of 5.99 nM, an EC50 [2] of about 0.0474 nM and an EC50 (cynomolgus monkey TG2 [3]) of 0.0561 nM. For the same binder, the IC50 (cynomolgus monkey TG2 [4]) was 8.51 nM.

B2: hBB001BB humanised BB7 antibody (BB7 RHB with BB7 RKB) (antibody, V domains shown)
VH: EVQLLESGGGLVQPGGSLRLSCAASGFTFSSSAMSWVRQAPGKGLEWVSTISSGGRSTYYPDSVKGRFTISRDNSKNTLYLQMNSLRAEDTAVYYCAKLISPYWGQGTLVTVSS
VL: DIQMTQSPSSLSASVGDRVTITCKASQDINSYLTWFQQKPGKAPKSLIYLTNRLMDGVPSRFSGSGSGTDFFLTISSLQPEDFATYYCLQYVDFPYTFGQGTKVEIK
Binder B2 has an IC50 [1] of 0.985 nM, an EC50 [2] of 0.0627 nM and an EC50 (cynomolgus monkey TG2 [3]) of 0.0738 nM.

B3: cAB003 chimeric anti-TG2 antibody (murine AB1 variable regions, human IgG1 and human kappa) (antibody, V domains shown)
VH: EVQLVESGGGLVKPGGSLKLSCAASGFTLSSSAMSWVRQTPDRRLEWVATISVGGGKTYYPDSVKGRFTISRDNAKNTLYLQMNSLRSEDTAMYYCAKLISLYWGQGTTLTVSS
VL: DIKMTQSPSSMYASLGERVTITCKASQDINSYLTWFQQKPGKSPKTLIYRTNRLFDGVPSRFSGSGSGQDFFLTISSLEYEDMGIYYCLQYDDFPYTFGGGTKLEIK
In the case of B3, the EC50 [5] is reported as 0.0614 nM, the IC50 [6] is reported as 1.17 nM and the EC50 (cynomolgus monkey TG2 [7]) is reported as 0.0568 nM.

B4: DC1 murine monoclonal anti-TG2 antibody (antibody, V domains shown)
VH: EVQLVESGGGLVKPGGSLKLSCAASGFTLSTHAMSWVRQTPEKRLEWVATISSGGRSTYYPDSVKGRFTISRDNVKNTLYLQLSSLRSEDTAVYFCARLISTYWGQGTTLTVSS
VL: DITMTQSPSSIYASLGERVTITCKASQDINSYLTWFQQKPGKSPKILIYLVNRLVDGVPSRFSGSGSGQDYALTISSLEYEDMGIYYCLQYDDFPYTFGGGTKLEIK
Work on B4 yielded an EC50 [8] of 0.571 nM.

B5: DH2 murine monoclonal anti-TG2 antibody (antibody, V domains shown)
VH: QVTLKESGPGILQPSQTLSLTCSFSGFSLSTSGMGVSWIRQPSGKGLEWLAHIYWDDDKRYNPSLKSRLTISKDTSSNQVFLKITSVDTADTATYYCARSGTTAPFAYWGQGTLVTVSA
VL: QIVLTQSPAIMSASPGEKVTMTCSASSSVSYMYWYQQKPGSSPRLLIYDTSNLASGVPVRFSGSGSGTSYSLTISRMEAEDAATFYCQQWSSSPLTFGAGTKLELK
B5 was tested, and the EC50 [9] was about 7000 nM.

B6: DD9 murine monoclonal anti-TG2 antibody (antibody, V domains shown)
VH: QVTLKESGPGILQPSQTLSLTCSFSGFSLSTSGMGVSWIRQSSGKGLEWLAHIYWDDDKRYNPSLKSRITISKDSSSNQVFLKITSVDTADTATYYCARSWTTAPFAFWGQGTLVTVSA
VL: QIVLTQSPAIMSASPGEKVTMTCSASSSVDYMYWYQQKPGSSPRLLIYDTSNLASGVPVRFSGSGSGTSYSLTISRMGAEDAATYYCQQWNSSPLTFGAGTKLELK
Binder B6 has an EC50 [8] of 564 nM.
